In assay [1] the target is T1, His-SEB蛋白 (Staphylococcus aureus, UniProt P01552 28-266).
T1 sequence: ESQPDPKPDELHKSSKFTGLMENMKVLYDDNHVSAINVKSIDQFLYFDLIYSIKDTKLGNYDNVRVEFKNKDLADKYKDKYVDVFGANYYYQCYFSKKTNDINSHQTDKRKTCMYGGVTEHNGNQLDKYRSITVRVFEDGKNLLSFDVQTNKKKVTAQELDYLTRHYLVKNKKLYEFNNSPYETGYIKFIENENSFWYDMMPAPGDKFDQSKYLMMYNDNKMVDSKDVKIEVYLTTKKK

Assay [2] has as its target T1, His-SEB蛋白. This is another data set of the same source.

B1: YG11-1抗体 (antibody, V domains shown)
VH: QVQLVESGGGVVQPGRSLRLSCAASGFSLSDHAVHWVRQAPGKGLEWVALISYDGSDKYYKDSVKGRFTISRDNPKNTLYLQMTSLKPEDTAVYYCARQGGNKNINYFFQYLDVWGQGTMVTVSS
VL: DIVMTQTPSSLSASVGDRVNISCRASQTISNHLNWYLQKPGKAPKLLIYDASSLESGVPSRFSGSGSGTDFTLTISSLQPEDFATYYCQQFINYPPTFGPGTKLEIKR
B1 gave a 50% effective concentration (EC50) with His-SEB蛋白 [1] of 0.013 µg/mL. In the assay with His-SEB蛋白 [2], this molecule yielded a dissociation constant Kd of 16.6 nM, a koff of 0.0169 s⁻¹ and a kon of 1.02e+06 M⁻¹ s⁻¹.

The values are drawn from patent CN111333724A (INST MILITARY MEDICINE ACADEMY MILITARY SCIENCES PLA, dated 2020).
